From publication doi:10.1101/2025.05.02.651988 (bioRxiv, 2025)
Where two headings read alike, the source gives them in different places.

B1: phage Mu late gene transcription activator C (natural protein, bacteriophage Mu, UniProt P06022 1-140, looked up)
chain: MQHDLFEHDPAIRQLIGHIDNIPAPELESRWPRSVVDLIDVLENELKRQNVSNPRELARKQAVALSCFLGGRQFYIPCGDTILTALRDDLLYCQFNGRNMEELRRQYRLSQPQIYQIIARQRKLHTRRHQPDLFSPETPK
B2: phage Mu middle operon regulator Mor (natural protein, bacteriophage Mu, UniProt P23848 1-129, looked up)
chain: MTEDLFGDLQDDTILAHLDNPAEDTSRFPALLAELNDLLRGELSRLGVDPAHSLEIVVAICKHLGGGQVYIPRGQALDSLIRDLRIWNDFNGRNVSELTTRYGVTFNTVYKAIRRMRRLKYRQYQPSLL

What was measured:
Assay in all cases: cryo-EM structure
cryo-EM structure [1] = target: the molecule itself
cryo-EM structure [2] = target: the molecule itself; remark: listed apart in the source
[3] = target: E. coli RNA polymerase σ70 subunit (E. coli, UniProt P00579 1-613)
Chain of E. coli RNA polymerase σ70 subunit (P00579 whole entry): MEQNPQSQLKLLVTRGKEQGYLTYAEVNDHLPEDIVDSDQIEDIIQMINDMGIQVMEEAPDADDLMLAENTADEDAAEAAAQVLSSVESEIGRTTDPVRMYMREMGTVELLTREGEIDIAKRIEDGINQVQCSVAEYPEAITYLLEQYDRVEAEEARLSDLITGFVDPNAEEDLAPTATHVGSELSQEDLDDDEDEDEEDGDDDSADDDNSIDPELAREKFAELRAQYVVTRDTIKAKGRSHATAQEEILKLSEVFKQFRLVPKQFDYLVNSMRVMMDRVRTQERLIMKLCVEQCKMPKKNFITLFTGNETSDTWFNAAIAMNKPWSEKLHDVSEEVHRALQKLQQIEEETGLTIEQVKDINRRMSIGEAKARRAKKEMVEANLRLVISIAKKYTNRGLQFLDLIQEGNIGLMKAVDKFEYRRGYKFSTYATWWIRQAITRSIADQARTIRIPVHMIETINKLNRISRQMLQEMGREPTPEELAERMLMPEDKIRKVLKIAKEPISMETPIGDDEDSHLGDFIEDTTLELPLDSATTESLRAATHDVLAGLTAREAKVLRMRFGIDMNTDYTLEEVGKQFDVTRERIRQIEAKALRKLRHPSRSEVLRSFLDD

Binder | stoichiometry N (cryo-EM structure [1]) | stoichiometry N (cryo-EM structure [2]) | binding result [3]
B1 | 4 |  | 
B2 |  | 4 | binds
